This note sets out measurements from the domain aggregation screens of Martell et al. (2025).

This data set is described as follows: soluble fraction after stress (log2 fold change); higher = more stays soluble; pooled small domains, quantitative proteomics. The following applies: stress: 50 degC. The gist of the method:
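After stress at 50°C, the amount of each protein still soluble was measured. This was done on pooled custom libraries of small protein domains, using high-throughput quantitative proteomics. The figure given is a base-two log fold change and stands for aggregation propensity, with higher values meaning more protein stays in solution.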
As for “HMGVHSVVPDIKNKHYGEAKAILAANGLSIEISDSIYDRSVAPGTVVESWPKAGAIVKGDRAVFVTLTAF”, the “soluble fraction (log2)” value was -1.28. Next, “HMGTRTILGIDPGSRKTGFGIIRLDGSRTHYVSSGVIRIPDTALPERLKIIFASLNEIIQQFQPQEV”: 0.0673; “HMAIKNKNEQLEAIIKFADLRGEFKTADIEELLSIKSSRARLLISELVKIGKLESIGSNRNRRYHIK”: -0.52; “HMYSDERLQTFMELLPFFVEELSNKHVTRYNVWQNYREAYPNGYGRSQFFFHLGQNLEAKKK”: -1.17. As to “HMDRGDVTREALIKAAIEIFGRDGFHAASTRAIAERAGANQALIGYHFRGKLGLYHATFEYIIGKI”, the “soluble fraction (log2)” value was -0.315. The result for “HMQLVPGIGRLSARELEVFTLIGRGLGTSEIGKKLGVSAYTVQTHRNHIKEKLNLPNAAAITYWAIQWAHG” reads -2.14; that for “HMPRYQQIARQLKTAIEHGELKPGARLPSSRTWSQELGISRSTVESAYTELVAQGWLERRGQAGTFVSAQL”, -0.749; that for “HMEDVRSLTGPEKAAIILLSLGEEHGQGVWRMFDDEEVKEVSQIMANLGTISASVVEKLLVEFVSQMST”, -0.873. The result for “HMAGASQAVKAQLRLREMILAGELPGGARIAELTLVEKLGVSRTPIRAALMRLEQEGLLHRLPGGGYAVRT” reads -0.52; that for “HMDVQPTTTKTMFYTVQQGETLFSISRKFGISVEEITKKNPLASSGLTVGMELLLPEKKEINSTIQS”, 0.265; that for “HMHLRYTYIYDNENRVTSKEASKWDSTQEAWVPYFKMNVSYVNNEVELSYARWNSKSNAYDSSIKKTI”, -2.36. Take “HMALLSNTVDELHAGMRLDSYLFESGLYPSRSFAVKQIEAGKVFLNGDAVTKKTLVSNGDFIVYELEE”: the “soluble fraction (log2)” value is -0.778. “HMDIGKNIQTIRYANKLTQDQVIAKLNLMGISMSKSTYAKLETNRMNIKVSELVALAKIFHTDINAF”: the “soluble fraction (log2)” value was -2.43.

As to “HMAQLPADMSKVKSADISEAQLQEFIQKATSSGYNMNQIEMEFAKRGMSENEVSLLRPRLRRLMAS”, the “soluble fraction (log2)” value is -0.031.

For the sequence “HMSEYEYALHEFGITKKQSQRIFDRLSIADLEERINAIQTTLKQRSDIDNPAAYAWTVLNAE”, the “soluble fraction (log2)” value was -0.207. In the case of “HMVMPTGRVRYYDAEKGFGFLSKDSGGDDVYVRSSALPAGVTSLKRGQKVEFGIIDGKRGEQALSVHLL”, the “soluble fraction (log2)” value is -0.0933.

Regarding “HMPLITDIKIQVKNTEKVSLFVDGKYSFSLTISQLAEHKILKTNQEISAKQVAEFKKLSNLTNLYIRIVG”, the “soluble fraction (log2)” value was -0.149. On to “HMIVNEQEQTFIKAMRDDDFNTILELKMKGYQPSDNVLKSLQPDISSTTFIAAAKIFQMERMLK”, for which the “soluble fraction (log2)” value is 0.218. Next, “HMKDYQGNILIQSEGDRIDKFLFKYFNSFSRTKIKNHIINGNILVNDKNTIPAYVLKINDKISYDLSTSVK”: -1.04; “HMELNDEELIKGIQELLTKIGYDPGEINGVLGIKTSSAISAFQQSRNKAITGEADLDLLVQLQIELRKITT”: -0.674; “HMSFGFFELKSSDTDKLFAYLNNNEHFGNIKEENGLVTAFLTSELDAQTLNKLLFDNGIIASHLVKRK”: -0.51. The result for “HMVTGSIYERKGIYYAIVSYYVDGRRKQKSVSTGLSVKGNKRRALEFLENLKRTYETKESMENMD” reads -3.16; that for “HMLETIDIFKVTGGEPFLSKDFLEILDLAIEKDLAKNITLMITTNASKFVKKILDKFIHFKRVEFTVS”, 0.0202.

With “HMKIVFGHVKWFDIDKGFGFLVLEDEGGDVLLHANVLKNFGRTSVSEDTKIEFEFLETDKGRQVSTIYNIL”, the “soluble fraction (log2)” value is -3.85. Next, “HMGEQVAVPDVTKKSVREVNNILTSAGLRLQIEGSGISVRQDPPADTMVAPDTVVTVSFEPP”: 0.168. Consider “HMPKYLNIYHELAQRIQEGALPAETKLPSETELMQEFEASRGTVRKAIDALQEKGFVRKHQGKGVFVLSQ”, for which the “soluble fraction (log2)” value is -0.371. On to “HMNDIDKFVAALVDQDTMAGTNRAFDENDIQTMKNMSSIEDVKQYAVANGLSSGKVNNALISAGL”, for which the “soluble fraction (log2)” value is 0.156.

As for “HMAVSDPTAGGIKALMYPNPAQDRLSVALDIPAGLDKQAQMTVTDMMGRVVTQQQVTLNDGFQVFEL”, the “soluble fraction (log2)” value was determined as 0.215. The result for “HMQISLDTKLINLEFSVRANNVFRENQIFTLRDLTSHSKEDLMLMTNFGKTTLYEVNKKLEEHQLKLSQ” reads -2.69; that for “HMWSNTAVIDRIRQLHEEGQPISSQSVQVNHKSLYMAAIKRFRGWKRAVEAAGIDYRQIRLR”, -1.92; that for “HMRESRLFQILYQLLTKKKVTAANLAKQFEVSVRTIYRDIDALSSSGIPIYASQGKNGGIQLDEDF”, -1.11.

Turning to “HMTRRVIRAPAAGIMRSNVKLGDLVKEGDVIAWIGEHEIKAPLTGMVRGLLNDGLAVVGGFKIGDI”, the “soluble fraction (log2)” value was -0.175. The result for “HMSPLDSHLGRRIALRRQQLNTSAADLEKAISMVPGSVARFEAGRQSLNATQLFTLSRALDVPVLYFFEG” reads -0.534; that for “HMFVTGTTIKKLREEKRMTQGELAQMIGVSDKAVSKWETGRGLPDISLLEPLSRALGISVAELFAGQH”, -0.0392. Regarding “HMHANAALTPRQRLRLAQKIVDEEWTVAAAADYFRVSWPTAAKWARRYVELGEAGMADRSSRP”, the “soluble fraction (log2)” value is -2.1. Next, “HMEDLDKIISAYLDENPQIVSDYGKGNKKAVNSAIGFVMKSTGGKYSSSDIVDAVRSMIVSISV”: -0.482; “HMSGDKKLQMNLILEFAQQNESFRTKDIEELLQIRSSRARKLISDLVTEGRLEALGENRNRRYQLI”: -0.985. The result for “HMNMIGDVIRNLRTVSSMTQTELGQRMGVIKQTISNWEKNISTPSIDAIVKLSSIFNVPTDYLL” reads -1.06; that for “HMMESLGIRLKRLRKDKGLTQVELGKLSGVTGVTIGYWEKDLNEPGSKALSKLAQALGTTESYLLYGVS”, -0.634.

In the case of “HMQIYSQEIYDAQKVLKELGLYTSDLDGLNGPGTKRALRNFQSKSGLNADGVLGPLTKSALDKGEESYITV”, the “soluble fraction (log2)” value was determined as 0.0375.

As to “HMSTKYSSNIISLVKGLMEEDQYKDLMGPPLKKEIIKKVESITDTFPYKFDKDDKEFIVKKVLISLRK”, the “soluble fraction (log2)” value is -1.29. For the sequence “HMNASITVPDVRNLTVKQASEQLLASGFTPIPYAATKDGVGNDIVYAQDPPPSVLARSGDQITITYNPA”, the “soluble fraction (log2)” value was 0.0329. “HMDQDIILHKVQPGDTLSKILLHYHSHQDRNKLQGLIAESMTANPFIKNPDLIYPGQLIQVPVPA”: the “soluble fraction (log2)” value was found to be 0.05. As to “HMKPFSLESYKAFVVKRLGLFPETSSAQMHDWLKEEYPDFPLITPRTVYNFVMKIRQDYGIAKV”, the “soluble fraction (log2)” value is -3.66.

As to “HMTGIRVYPNPTSSELRFSVATDAALYDATGARLRVVRGSDMMDIRDLASGTYYVRFADGSTQSVVVT”, the “soluble fraction (log2)” value is -0.198. Next, “HMLQGKVSFFNDEKGYGFIKDNNSKDSYFVHINKVEGEIAEGDKVTFELEKGPKGLVAANVKR”: 0.184. The result for “HMVVPSNPDELKGSFSLAEVASGYGLEVAAILEKAGWPADTDPNVKMRDAANAIGRDSTDIRNAVKALLKS” reads -0.0505.

As for “HMHLDIGQLVQRILADIQVGKLADGQRKLPAEPVLMERYQVTRYTLRQALKQLSNMGYTYQMHGIGTFVRQ”, the “soluble fraction (log2)” value is -0.863.

For the sequence “HMDRMMQPETWGRVYQWITDDPQVPDREEVLTLIKYHYGDFGKLMKLLHRLNEGKAWTYLSEHIFPRM”, the “soluble fraction (log2)” value was -0.123.

In the case of “HMATYNEVLKRLIEERKRLGLSQQEMARLVHITQSNYSKVEKGLHRLSYEELKYLSKANVDIFYILT”, the “soluble fraction (log2)” value came to 0.136.

Turning to “HMLTAPMPGIVRQVNVDTGQKVRKGQPLMVLEAMKMEHQIIAPQAGKIEAIHYNEGDRVEMGSVLISIF”, the “soluble fraction (log2)” value was -0.0961.

Regarding “HMSSSYTEMQLDKLKKLLEKETLLSSEKSELKSLIHDFDKIPEVVSPLIVGEYLRLKNKYIAVINSLE”, the “soluble fraction (log2)” value is -0.214. The result for “HMDEALLRATLLDVLVKHHPKIGDKLDVVFALAKAWVSSGSDDDFEVLEKYMERLKPDEALMLASGFSNML” reads -0.972; that for “HMLSDEEKMAALNEQARQRGFTISPGVLPYLITHYQRDMHSLSMILDALDRYSLQTKRTITLPLLHDLLQQ”, -1.06. Next, “HMARPLLSPREQDVLALIARGFSYSEVARLQAVTVHTIRTHIRNLYAKLSVHSKTEAVFEATRMGLLP”: -1.63; “HMQQGVEQLPVTEVGGRLMHYYEVQPKETLYSLSHKLGVGQEYIEQHNPSVRGGLRAFMTLYFPAA”: -0.0212. Next, “HMDGEFINLKNRAGTEIEARILNYQNGQVKLERKDGVTFVVSISMFDAKSVIAINHKIAEIIDT”: -1.37; “HMKNQIGFKIKNARRKASISQADLSAKLGISSSYLNLIESGKRNVNVDLLLKVSDVLNIELKDLSK”: -0.781; “HMHTDDDGITEAFPHLRLLSLGEDILDLLEKSRFIRKLNNELVYYVVDFREQNSIDGRRYHPSIYHNL”: -0.258.

Consider “HMVEMIGLQMVGKSGIASTVLRPSGKVRIDGVVYDAVSEDGFIEKGQAVKVLRYETGQVYVEKL”, for which the “soluble fraction (log2)” value was -0.254. The result for “HMTVLVPNLTGKTLLEAEILLDQAGLKKGDVYSESNKNVPKDHIIRQKPAPNTKIQKGATIDIYRSLGPE” reads 0.133; that for “HMAASTPGTVTGSVVNVRPDPSTNNDRIGVIYQGTKVEILAQVGEWYNIQFGPVSGWVHKDYISTGA”, 0.00638. Next, “HMSTFTPYLVKVTTSVLNIRKGAGTNYGTNGSIRDMGTYTIVAEADGQGASKWGKLKSGAGWISLDYTKK”: -1.94; “HMEYSTLEIYSQTKKDLIEKSPHLNKVVYDKDDGYIYLLSFEKEDDLTSFKSNIENDSDIKRIEANV”: 0.0917. Take “HMDLPRQSQYQALVVSYARRAGIDEAEEDLLAAFEVWRMRHNHDLAGGRTARDFILAYLPQYQRHKE”: the “soluble fraction (log2)” value is -1.63. Take “HMGMGIGQIIKEKRTALKMTQNELAERLGVSQQSVTGWENNAAVPRESAVRGMMDIFGLSRNELFGEP”: the “soluble fraction (log2)” value worked out at 0.331. The result for “HMPSPTPEQVLKAFTDAAMQKNTVEELKQAFAKAWKMLEGTPEQHKAQDVYNIRRDELEGAA” reads -0.173; that for “HMLPGLGPIERAQFMLQAIPGISPTRSAALIDKFGSIAGIAQASIKDIQTIEGIGKKTATTLYEVLNAG”, -0.341. For the sequence “HMTDSLELADLLRRAIITGEYKPRERLVEMELAQKYSVSRTPVREALKHLEALGLVKMERYKGAMVAD”, the “soluble fraction (log2)” value is -0.46.
